In patent US7049080B2, “Process for detecting serine/threonine kinase activity” (priority 2000, dated 2006):

Assays:
MKK7 [1] = molecular target: T1, MKK7 (Homo sapiens, UniProt O14733); settings: when max. activated; cited from earlier work
T1 construct: purchased Upstate Biotech 14-366
T1 sequence (O14733 1-419): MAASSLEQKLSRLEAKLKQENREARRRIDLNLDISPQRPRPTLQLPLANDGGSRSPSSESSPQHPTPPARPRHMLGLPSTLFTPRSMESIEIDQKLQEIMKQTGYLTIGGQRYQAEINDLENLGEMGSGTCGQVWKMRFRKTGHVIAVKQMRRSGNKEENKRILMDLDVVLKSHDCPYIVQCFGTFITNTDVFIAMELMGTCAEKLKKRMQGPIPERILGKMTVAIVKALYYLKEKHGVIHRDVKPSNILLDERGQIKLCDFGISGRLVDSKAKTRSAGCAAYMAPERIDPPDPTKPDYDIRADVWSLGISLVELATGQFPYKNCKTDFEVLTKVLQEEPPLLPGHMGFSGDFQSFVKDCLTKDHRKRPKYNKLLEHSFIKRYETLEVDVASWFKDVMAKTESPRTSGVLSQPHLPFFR

MKK7 [2] = molecular target: T1, MKK7; assay: FP measurements of MKK7 activity, time course, optimized conditions (Example 8); format: biochemical
Protocol: Fluorescence Polarization measurements of MKK7 activity (time course): In this experiment the assay conditions have been optimized. The reactions were stopped with EDTA. […] The following reagents have been used (explanations later on): […] The enzyme reactions were performed in Eppendorf reaction tubes at RT. Aliquots of 20 μl were withdrawn from the reactions at different time points and mixed with 10 μl STOP solution.

MKK7 [3] = molecular target: T1, MKK7; assay: FP measurements of MKK7 activity, time course (Example 7); format: biochemical; settings: 100 μM P1°
Protocol: Fluorescence Polarization measurements of MKK7 activity (time course): In this experiment, the time course has been investigated at P1^∘ substrate concentrations of 100 μM. The reactions were stopped with EDTA. The following reagents have been used (the compositions of the buffers and specifications of the reagents are explained in more detail later on): […] After addition of MKK7, the enzyme reactions were performed in Nunc chambers at RT. The samples were continuously measured at different time points by Fluorescence polarization.

B1: MKK7: MKK7 kinase, supplier Upstate Biotech cat. no. 14-366 (protein, UniProt O14733 2-419, looked up)
Dual specificity …: AASSLEQKLSRLEAKLKQENREARRRIDLNLDISPQRPRPTLQLPLANDGGSRSPSSESSPQHPTPPARPRHMLGLPSTLFTPRSMESIEIDQKLQEIMKQTGYLTIGGQRYQAEINDLENLGEMGSGTCGQVWKMRFRKTGHVIAVKQMRRSGNKEENKRILMDLDVVLKSHDCPYIVQCFGTFITNTDVFIAMELMGTCAEKLKKRMQGPIPERILGKMTVAIVKALYYLKEKHGVIHRDVKPSNILLDERGQIKLCDFGISGRLVDSKAKTRSAGCAAYMAPERIDPPDPTKPDYDIRADVWSLGISLVELATGQFPYKNCKTDFEVLTKVLQEEPPLLPGHMGFSGDFQSFVKDCLTKDHRKRPKYNKLLEHSFIKRYETLEVDVASWFKDVMAKTESPRTSGVLSQPHLPFFR
In the case of B1, the Specific activity (MKK7 [1]) is given as “Approximately 20 Units/mg”, the “Fluorescence Polarization” value (MKK7 [2]; NEB ab in STOP sol., MKK7 0.04 μM, 0 h) is given as 147.2 mP and the “Fluorescence Polarization” value (MKK7 [2]; NEB ab in STOP sol., MKK7 0.04 μM, 0.5 h) is given as 141.5 mP. The “Fluorescence Polarization” value (MKK7 [2]; NEB ab in STOP sol., MKK7 0.04 μM, 1 h) was 140.2 mP, the “Fluorescence Polarization” value (MKK7 [2]; NEB ab in STOP sol., MKK7 0.04 μM, 1.5 h) was 135.8 mP and the “Fluorescence Polarization” value (MKK7 [2]; NEB ab in STOP sol., MKK7 0.04 μM, 2 h) was 134.2 mP. For the same molecule, the “Fluorescence Polarization” value (MKK7 [2]; NEB ab in STOP sol., MKK7 0.04 μM, 3 h) was 138.2 mP, the “Fluorescence Polarization” value (MKK7 [2]; NEB ab in STOP sol., MKK7 0.08 μM, 0 h) was 143.3 mP and the “Fluorescence Polarization” value (MKK7 [2]; NEB ab in STOP sol., MKK7 0.08 μM, 0.5 h) was 139.1 mP. The “Fluorescence Polarization” value (MKK7 [2]; NEB ab in STOP sol., MKK7 0.08 μM, 1 h) was 133.6 mP, the “Fluorescence Polarization” value (MKK7 [2]; NEB ab in STOP sol., MKK7 0.08 μM, 1.5 h) was 122.1 mP and the “Fluorescence Polarization” value (MKK7 [2]; NEB ab in STOP sol., MKK7 0.08 μM, 2 h) was 115.8 mP. The “Fluorescence Polarization” value (MKK7 [2]; NEB ab in STOP sol., MKK7 0.08 μM, 3 h) was 125.0 mP, the “Fluorescence Polarization” value (MKK7 [2]; NEB ab in STOP sol., MKK7 0.2 μM, 0 h) was 148.2 mP and the “Fluorescence Polarization” value (MKK7 [2]; NEB ab in STOP sol., MKK7 0.2 μM, 0.5 h) was 130.2 mP. The “Fluorescence Polarization” value (MKK7 [2]; NEB ab in STOP sol., MKK7 0.2 μM, 1 h) was 114.0 mP, the “Fluorescence Polarization” value (MKK7 [2]; NEB ab in STOP sol., MKK7 0.2 μM, 1.5 h) was 102.8 mP and the “Fluorescence Polarization” value (MKK7 [2]; NEB ab in STOP sol., MKK7 0.2 μM, 2 h) was 99.2 mP. For the same molecule, the “Fluorescence Polarization” value (MKK7 [2]; NEB ab in STOP sol., MKK7 0.2 μM, 3 h) was 119.4 mP, the “Fluorescence Polarization” value (MKK7 [2]; NEB ab in reaction, MKK7 0.04 μM, 0 h) was 150.0 mP and the “Fluorescence Polarization” value (MKK7 [2]; NEB ab in reaction, MKK7 0.04 μM, 0.5 h) was 128.5 mP. For the same molecule, the “Fluorescence Polarization” value (MKK7 [2]; NEB ab in reaction, MKK7 0.04 μM, 1 h) was 125.7 mP, the “Fluorescence Polarization” value (MKK7 [2]; NEB ab in reaction, MKK7 0.04 μM, 1.5 h) was 112.9 mP and the “Fluorescence Polarization” value (MKK7 [2]; NEB ab in reaction, MKK7 0.04 μM, 2 h) was 109.7 mP. The “Fluorescence Polarization” value (MKK7 [2]; NEB ab in reaction, MKK7 0.04 μM, 3 h) was 78.6 mP, the “Fluorescence Polarization” value (MKK7 [2]; NEB ab in reaction, MKK7 0.08 μM, 0 h) was 138.5 mP and the “Fluorescence Polarization” value (MKK7 [2]; NEB ab in reaction, MKK7 0.08 μM, 0.5 h) was 122.5 mP. For the same molecule, the “Fluorescence Polarization” value (MKK7 [2]; NEB ab in reaction, MKK7 0.08 μM, 1 h) was 105.9 mP, the “Fluorescence Polarization” value (MKK7 [2]; NEB ab in reaction, MKK7 0.08 μM, 1.5 h) was 86.4 mP and the “Fluorescence Polarization” value (MKK7 [2]; NEB ab in reaction, MKK7 0.08 μM, 2 h) was 84.5 mP. The “Fluorescence Polarization” value (MKK7 [2]; NEB ab in reaction, MKK7 0.08 μM, 3 h) was 65.0 mP, the “Fluorescence Polarization” value (MKK7 [2]; NEB ab in reaction, MKK7 0.2 μM, 0 h) was 137.2 mP and the “Fluorescence Polarization” value (MKK7 [2]; NEB ab in reaction, MKK7 0.2 μM, 0.5 h) was 101.4 mP. For the same molecule, the “Fluorescence Polarization” value (MKK7 [2]; NEB ab in reaction, MKK7 0.2 μM, 1 h) was 83.1 mP, the “Fluorescence Polarization” value (MKK7 [2]; NEB ab in reaction, MKK7 0.2 μM, 1.5 h) was 78.1 mP and the “Fluorescence Polarization” value (MKK7 [2]; NEB ab in reaction, MKK7 0.2 μM, 2 h) was 72.1 mP. For the same molecule, the “Fluorescence Polarization” value (MKK7 [2]; NEB ab in reaction, MKK7 0.2 μM, 3 h) was 59.4 mP, the “Fluorescence Polarization” value (MKK7 [3]; MKK7 0.005 μM, 0 h) was 131.5 mP and the “Fluorescence Polarization” value (MKK7 [3]; MKK7 0.005 μM, 0.5 h) was 137.4 mP. The “Fluorescence Polarization” value (MKK7 [3]; MKK7 0.005 μM, 1 h) was 136.8 mP, the “Fluorescence Polarization” value (MKK7 [3]; MKK7 0.005 μM, 1.5 h) was 136.9 mP and the “Fluorescence Polarization” value (MKK7 [3]; MKK7 0.005 μM, 3 h) was 138.1 mP. For the same molecule, the “Fluorescence Polarization” value (MKK7 [3]; MKK7 0.02 μM, 0 h) was 135.4 mP, the “Fluorescence Polarization” value (MKK7 [3]; MKK7 0.02 μM, 0.5 h) was 140.3 mP and the “Fluorescence Polarization” value (MKK7 [3]; MKK7 0.02 μM, 1 h) was 140.9 mP. The “Fluorescence Polarization” value (MKK7 [3]; MKK7 0.02 μM, 1.5 h) was 139.7 mP, the “Fluorescence Polarization” value (MKK7 [3]; MKK7 0.02 μM, 3 h) was 140.0 mP and the “Fluorescence Polarization” value (MKK7 [3]; MKK7 0.08 μM, 0 h) was 133.5 mP. The “Fluorescence Polarization” value (MKK7 [3]; MKK7 0.08 μM, 0.5 h) was 137.6 mP, the “Fluorescence Polarization” value (MKK7 [3]; MKK7 0.08 μM, 1 h) was 135.8 mP and the “Fluorescence Polarization” value (MKK7 [3]; MKK7 0.08 μM, 1.5 h) was 128.4 mP. For the same molecule, the “Fluorescence Polarization” value (MKK7 [3]; MKK7 0.08 μM, 3 h) was 115.2 mP, the “Fluorescence Polarization” value (MKK7 [3]; MKK7 0.2 μM, 0 h) was 135.3 mP and the “Fluorescence Polarization” value (MKK7 [3]; MKK7 0.2 μM, 0.5 h) was 132.1 mP. The “Fluorescence Polarization” value (MKK7 [3]; MKK7 0.2 μM, 1 h) was 121.9 mP, the “Fluorescence Polarization” value (MKK7 [3]; MKK7 0.2 μM, 1.5 h) was 113.8 mP and the “Fluorescence Polarization” value (MKK7 [3]; MKK7 0.2 μM, 3 h) was 104.7 mP. For the same molecule, the “Fluorescence Polarization” value (MKK7 [3]; MKK7 0.5 μM, 0 h) was 135.3 mP, the “Fluorescence Polarization” value (MKK7 [3]; MKK7 0.5 μM, 0.5 h) was 125.5 mP and the “Fluorescence Polarization” value (MKK7 [3]; MKK7 0.5 μM, 1 h) was 115.3 mP. The “Fluorescence Polarization” value (MKK7 [3]; MKK7 0.5 μM, 1.5 h) was 108.8 mP, the “Fluorescence Polarization” value (MKK7 [3]; MKK7 0.5 μM, 3 h) was 106.6 mP and the “Fluorescence Polarization” value (MKK7 [3]; MKK7 1.0 μM, 0 h) was 135.7 mP. For the same molecule, the “Fluorescence Polarization” value (MKK7 [3]; MKK7 1.0 μM, 0.5 h) was 119.6 mP, the “Fluorescence Polarization” value (MKK7 [3]; MKK7 1.0 μM, 1 h) was 112.2 mP and the “Fluorescence Polarization” value (MKK7 [3]; MKK7 1.0 μM, 1.5 h) was 105.3 mP. The “Fluorescence Polarization” value (MKK7 [3]; MKK7 1.0 μM, 3 h) was 108.4 mP.
